According to the supplement of paper PMC10126150:
± gives the standard deviation of the averaged measurements.

test system: ATP; experiment: switch fluorescence ratio, 500 uM ATP over buffer (Cy3 cluster intensity, sum of 5 cycles each) (fold (ratio)); higher = stronger signal-on switching upon ATP binding; sequences stand for … in TCGTCGGCAGCGTCAGATGTGTATAAGAGACAGTTTTTTTTTTTTTTTTTTTTTTTTT…TC; conditions: aptamer strand: ATP DNA aptamer (quencher-CACCTGGGGGAGTATTGCGGAGGAAGG + anchor), 100 nM annealed; ATP concentration: 500 uM
Summary of the method: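 Per cluster, summed Cy3 intensity from the target cycles was divided by that from the buffer cycles to give the fluorescence ratio, then averaged per switch-domain sequence. Clusters outside 100-1000 RFU were excluded. The Cy3-labelled switching-strand clusters, on a modified Illumina MiSeq flow-cell, were annealed to 100 nM quencher-labelled ATP aptamer and imaged in selection buffer, then after 15 min with 500 uM ATP at 22 °C, for five cycles with NaOH stripping and re-annealing between them.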
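Further: ATP exposure 15 min at 22 °C before imaging.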

ATTATTACGT and CGGTTAACCA are within error of each other in switch fluorescence ratio: 0.99 ± 0.038 for the first, 1.02 ± 0.021 for the second.

AGATTCAATA and TGAAAAAATC are within error of each other in switch fluorescence ratio: 0.991 ± 0.016 for the first, 0.987 ± 0.019 for the second.

Compared with GGGTGTAGTA, CCTTGGGCTT is higher in switch fluorescence ratio: 0.9978 ± 0.0079 for the first, 1.04 ± 0.031 for the second.

CGCATGGAGT and TCTAATTACA are the same in switch fluorescence ratio: 1.04 ± 0.015 for the first, 1.04 ± 0.073 for the second.

TACTAATGGA and AAGGGGCCCT are within error of each other in switch fluorescence ratio: 1.01 ± 0.041 for the first, 1.0195 ± 0.00095 for the second.

GGTAGGGCGA and CCACTCTGGG are within error of each other in switch fluorescence ratio: 1.01 ± 0.026 for the first, 0.9984 ± 0.0068 for the second.

TGGACGTCGT and GGGTGGTGGG are the same in switch fluorescence ratio: 0.987 ± 0.019 for the first, 0.987 ± 0.057 for the second.

Compared with TCAGTAATAA, AAGTGGGGGA is lower in switch fluorescence ratio: 1.345 ± 0.013 for the first, 1.02 ± 0.015 for the second.

AGAGGGGGCG and TAGAAATTAT are within error of each other in switch fluorescence ratio: 1.01 ± 0.039 for the first, 1.19 ± 0.38 for the second.

GTGGCTTTTT and GGATGGGGCA are the same in switch fluorescence ratio: 1 ± 0.037 for the first, 1 ± 0.023 for the second.

AAAGGGAAAT and CAGTTGGAGC are within error of each other in switch fluorescence ratio: 0.975 ± 0.037 for the first, 0.981 ± 0.06 for the second.

GGTAGGGATC and CATGAGGGGG are within error of each other in switch fluorescence ratio: 1.017 ± 0.0042 for the first, 1.01 ± 0.059 for the second.

AAGGCGGGGT and ATAGGGTGTG are within error of each other in switch fluorescence ratio: 0.997 ± 0.033 for the first, 1.02 ± 0.076 for the second.

TAGCGGGCGT and AGTGGGTCGG are within error of each other in switch fluorescence ratio: 0.964 ± 0.026 for the first, 0.9824 ± 0.0097 for the second.

ACTAGTATGG and TAGAGAATGG are within error of each other in switch fluorescence ratio: 1.03 ± 0.053 for the first, 0.994 ± 0.0086 for the second.

First: TCAGTTTTAT
Second: CATCGTAATT
The switch fluorescence ratio of the first is lower: 0.9726 ± 0.0074 for the first, 1.07 ± 0.042 for the second.

GATTTTGGTC and CTGGTTAGGC are within error of each other in switch fluorescence ratio: 0.967 ± 0.054 for the first, 1.01 ± 0.034 for the second.

TATAAAAAGC and GAATGTAGGG are within error of each other in switch fluorescence ratio: 1 ± 0.013 for the first, 0.967 ± 0.046 for the second.

AGACTAGGCT and TTCCCTTTTG are the same in switch fluorescence ratio: 1.02 ± 0.018 for the first, 1.02 ± 0.0057 for the second.

GAAATTTGG and TGACTAAACA are within error of each other in switch fluorescence ratio: 1.01 ± 0.061 for the first, 1.056 ± 0.0059 for the second.

ATGAGTCATT and TGCTGGTATA are within error of each other in switch fluorescence ratio: 0.987 ± 0.026 for the first, 0.983 ± 0.038 for the second.

GTTTTTCCCC and AGTACTAGGA are within error of each other in switch fluorescence ratio: 1.11 ± 0.14 for the first, 0.993 ± 0.011 for the second.

Compared with TTAAACGGAG, AACCTTATCA is higher in switch fluorescence ratio: 1.034 ± 0.0052 for the first, 1.07 ± 0.02 for the second.

ATGGTATCAG and GCGTGGAGA are within error of each other in switch fluorescence ratio: 1.007 ± 0.0084 for the first, 1 ± 0.03 for the second.

GGGGATGTAA and AGGGGGGATG are within error of each other in switch fluorescence ratio: 1.01 ± 0.013 for the first, 0.992 ± 0.022 for the second.

TGCATTCTTT and TTTGAATCGG are within error of each other in switch fluorescence ratio: 0.9999 ± 0.0052 for the first, 0.97 ± 0.027 for the second.

Going from TGCTGTTGTA to CTTCGGTAAC, the switch fluorescence ratio rises from 0.998 ± 0.033 to 2.175 ± 0.0072.

Compared with GGTTGCGGTG, CGAATCAATC is higher in switch fluorescence ratio: 0.94 ± 0.083 for the first, 2.51 ± 0.44 for the second.

TTAGTTGTGG and CGTTTGTTTG are within error of each other in switch fluorescence ratio: 0.982 ± 0.02 for the first, 0.988 ± 0.021 for the second.

First: AGGCTTGAGG
Second: GGGCTAGTGT
The switch fluorescence ratio of the first is higher: 0.9904 ± 0.0044 for the first, 0.963 ± 0.01 for the second.

CTTATTCGAT and TGTTTGTGGT are within error of each other in switch fluorescence ratio: 0.999 ± 0.012 for the first, 0.987 ± 0.023 for the second.

First: CAGCGGCTTT
Second: TTCGTAATGT
The switch fluorescence ratio of the first is lower: 0.977 ± 0.032 for the first, 1.036 ± 0.0083 for the second.

GTGATACACG and TAGGTTGATG are within error of each other in switch fluorescence ratio: 1.004 ± 0.0033 for the first, 0.981 ± 0.035 for the second.

Compared with CAGGTGTATG, GGCCCAGGAG is lower in switch fluorescence ratio: 1.273 ± 0.0042 for the first, 1.01 ± 0.017 for the second.

Compared with CTGTAGTAGC, TTTGATTAGG is lower in switch fluorescence ratio: 2.38 ± 1.1 for the first, 1.01 ± 0.04 for the second.

TGGGGGTGCT and TGGTGCATTT are within error of each other in switch fluorescence ratio: 1 ± 0.013 for the first, 1.06 ± 0.14 for the second.

TTTGTGTAAT and GATCTGGACA are within error of each other in switch fluorescence ratio: 0.989 ± 0.038 for the first, 1.01 ± 0.032 for the second.

CCGGTGTGTA and AAACAGTTGG are within error of each other in switch fluorescence ratio: 1.03 ± 0.029 for the first, 0.9936 ± 0.0097 for the second.

ACGACGGGGG and GATCGAAACT are within error of each other in switch fluorescence ratio: 1.2 ± 0.23 for the first, 1.01 ± 0.081 for the second.

Going from GGCTGGCGGG to TCATGTGCAT, the switch fluorescence ratio rises from 0.99 ± 0.044 to 1.129 ± 0.0048.

Compared with GGTCATATGC, GTGTTATTGC is lower in switch fluorescence ratio: 1.04 ± 0.013 for the first, 0.953 ± 0.011 for the second.

First: TGTTATAGGG
Second: AGTGGATGGG
The switch fluorescence ratio of the first is higher: 1.03 ± 0.033 for the first, 0.9858 ± 0.0031 for the second.

First: TTTCTCTTAG
Second: CTGCTACAGT
The switch fluorescence ratio of the first is lower: 0.9889 ± 0.0072 for the first, 1.03 ± 0.02 for the second.

GGGTGAGGAT and GTAATAGGGC are within error of each other in switch fluorescence ratio: 1 ± 0.046 for the first, 0.983 ± 0.054 for the second.

Compared with ACATGCGGTG, TTGGTTTGAG is higher in switch fluorescence ratio: 1.002 ± 0.0033 for the first, 1.016 ± 0.0031 for the second.

AGTTTATTGG and GCGGGAATGA are within error of each other in switch fluorescence ratio: 0.999 ± 0.0086 for the first, 1 ± 0.045 for the second.

GGTTTTAGAT and TAACAGAAGA are within error of each other in switch fluorescence ratio: 0.9977 ± 0.0072 for the first, 0.991 ± 0.017 for the second.

CCCGGGTCTG and AAGTCCAATG are within error of each other in switch fluorescence ratio: 1.04 ± 0.035 for the first, 1.01 ± 0.023 for the second.

GGAAAAGTTC and CACAATTTTT are within error of each other in switch fluorescence ratio: 1 ± 0.058 for the first, 0.991 ± 0.025 for the second.

TGGGTTAACA and GGGTCTTTTC are within error of each other in switch fluorescence ratio: 0.991 ± 0.018 for the first, 1.11 ± 0.11 for the second.

ACGAGGGGGC and CGCGCCTATC are within error of each other in switch fluorescence ratio: 1.24 ± 0.34 for the first, 1.11 ± 0.02 for the second.

First: GAGTACAAAG
Second: GGGTTTTGCG
The switch fluorescence ratio of the first is higher: 1.02 ± 0.0041 for the first, 0.9735 ± 0.0082 for the second.

CGGGGGGTAG and TAATCGATAT are within error of each other in switch fluorescence ratio: 0.995 ± 0.035 for the first, 0.9803 ± 0.0026 for the second.

TATAAAATTC and CGGGCCACTT are within error of each other in switch fluorescence ratio: 1.24 ± 0.43 for the first, 1.008 ± 0.0076 for the second.

GGGTACAGGT and CCTGGCGTCG are within error of each other in switch fluorescence ratio: 1.18 ± 0.2 for the first, 1.005 ± 0.0083 for the second.

Going from GCATTGGTAC to TGTTAGTATT, the switch fluorescence ratio falls from 1.17 ± 0.071 to 0.999 ± 0.019.

TTAATTATAT and AATGTTAGGC are the same in switch fluorescence ratio: 1.02 ± 0.018 for the first, 1.02 ± 0.034 for the second.

TTGCTCTGTT and CAGTGGTGGG are within error of each other in switch fluorescence ratio: 0.988 ± 0.023 for the first, 1.01 ± 0.04 for the second.

TTACGGGGCA and GATGAGCCGG are within error of each other in switch fluorescence ratio: 1.04 ± 0.019 for the first, 1 ± 0.027 for the second.

TAAAAGTTTA and AATAAGGGGA are within error of each other in switch fluorescence ratio: 1.04 ± 0.016 for the first, 1.02 ± 0.077 for the second.

TTATGAAGGA and ATAGCGGACA are within error of each other in switch fluorescence ratio: 1.02 ± 0.021 for the first, 0.967 ± 0.033 for the second.

CATTCCCTGA and GTTGTAGCCA are within error of each other in switch fluorescence ratio: 0.981 ± 0.011 for the first, 0.966 ± 0.043 for the second.

TAGGGAACGT and CGAGTCTTTG are within error of each other in switch fluorescence ratio: 1.04 ± 0.04 for the first, 1.03 ± 0.059 for the second.

GGGATTTAGG and TGATTAGAGG are within error of each other in switch fluorescence ratio: 0.997 ± 0.035 for the first, 1.02 ± 0.1 for the second.

CCTGGGGAGT and AAAATGCTTT are within error of each other in switch fluorescence ratio: 1.04 ± 0.034 for the first, 1.01 ± 0.0014 for the second.

CCAGTGAGGG and CAGGACAGCT are within error of each other in switch fluorescence ratio: 0.99 ± 0.026 for the first, 1.02 ± 0.02 for the second.

CGTTTTTTAG and TAATTTTTTT are within error of each other in switch fluorescence ratio: 0.99 ± 0.022 for the first, 1.01 ± 0.014 for the second.

AAGGAAGAAA and TTTTATATAT are within error of each other in switch fluorescence ratio: 0.974 ± 0.068 for the first, 1.014 ± 0.0079 for the second.

GGGGCAGTGT and TGAGGAGGGA are within error of each other in switch fluorescence ratio: 0.991 ± 0.042 for the first, 0.987 ± 0.013 for the second.

Compared with CGGGTAATTC, TGTTTTTACC is lower in switch fluorescence ratio: 1.128 ± 0.0039 for the first, 1.03 ± 0.059 for the second.

Going from AGGGTTGGAG to TCCAGGACTA, the switch fluorescence ratio rises from 1.003 ± 0.0042 to 1.02 ± 0.015.

ACGTGTGATG and ATGAGTAGGA are within error of each other in switch fluorescence ratio: 0.99 ± 0.024 for the first, 1.017 ± 0.0061 for the second.

AAGGGGCCGC and GTTAGCTTAG are within error of each other in switch fluorescence ratio: 0.982 ± 0.026 for the first, 0.99 ± 0.025 for the second.

CTGTGCGTGG and TTTTTTGAAA are within error of each other in switch fluorescence ratio: 0.973 ± 0.029 for the first, 1 ± 0.054 for the second.

GTTAGAGTTT and TTTGGATCGT are within error of each other in switch fluorescence ratio: 0.988 ± 0.03 for the first, 0.981 ± 0.025 for the second.

ATATCGAGTT and TGGGGGCACG are within error of each other in switch fluorescence ratio: 0.9894 ± 0.00022 for the first, 1 ± 0.026 for the second.

First: AATGGGGGAC
Second: AGGGAAGGGC
The switch fluorescence ratio of the first is lower: 1.001 ± 0.0025 for the first, 1.032 ± 0.0084 for the second.

First: GGGAAAACTA
Second: ACGCTCATGT
The switch fluorescence ratio of the first is lower: 1 ± 0.028 for the first, 1.05 ± 0.013 for the second.

GCTGCTGGTA showed a switch fluorescence ratio of 1.02 ± 0.024.
